Assay results: US7063843 (OKLAHOMA MEDICAL RESEARCH FOUNDATION, dated 2006)

Tests used:
[1] = biological target: T1, 125I-labeled activated protein C (human, UniProt P04070 43-197; P04070 212-461, radioiodinated with Na[125I] by Iodogen; positions not stated); test: 125I-APC binding to HUVEC monolayers at 4 C, Scatchard analysis
T1 construct: Specific activity 1x10^4 cpm/ng
Protocol: At the indicated times, cells were washed and bound radioactivity was measured. […] After washing, bound radioactivity was measured. […] Specific binding was determined as described below.
Monolayers of HUVEC in 24-well microplates (Costar) (1×10⁵ cells per well) were washed twice with EDTA/PBS and once with ice-cold HBSS. […] After washing three times with ice-cold HBSS, cells were released with the EDTA buffer, and the bound radioactivity was measured in a gamma counter (Isodata 500). To determine non-specific, calcium-independent adsorption of radioactivity, the cells were washed with EDTA/PBS and residual radioactivity in the cell pellet was measured. Non-specific binding of radioactivity was consistently less than 5% of the specific binding. The data was analyzed using the Enzfitter program (Elsevier Biosoft, Cambridge, U.K.).

human protein C = biological target: T2, human protein C (human, UniProt P04070 43-461); test: summary statement; the direct measurement was 125I-APC on HUVEC, and protein C displaced F1-APC equivalently to APC
T2 construct: also called PC
T2 sequence (P04070 43-461): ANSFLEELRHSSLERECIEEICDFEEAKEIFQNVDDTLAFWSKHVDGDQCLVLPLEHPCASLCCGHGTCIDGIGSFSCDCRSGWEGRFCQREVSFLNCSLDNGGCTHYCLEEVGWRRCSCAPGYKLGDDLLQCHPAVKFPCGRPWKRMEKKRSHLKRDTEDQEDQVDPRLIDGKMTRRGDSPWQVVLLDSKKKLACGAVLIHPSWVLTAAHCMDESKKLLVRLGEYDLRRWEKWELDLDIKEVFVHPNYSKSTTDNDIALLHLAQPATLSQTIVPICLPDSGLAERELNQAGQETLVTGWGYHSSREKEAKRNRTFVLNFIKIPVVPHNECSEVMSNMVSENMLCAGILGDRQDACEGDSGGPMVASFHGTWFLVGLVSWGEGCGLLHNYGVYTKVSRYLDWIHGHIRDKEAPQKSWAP

T1 sequence (P04070 43-197, chain 1 of 2): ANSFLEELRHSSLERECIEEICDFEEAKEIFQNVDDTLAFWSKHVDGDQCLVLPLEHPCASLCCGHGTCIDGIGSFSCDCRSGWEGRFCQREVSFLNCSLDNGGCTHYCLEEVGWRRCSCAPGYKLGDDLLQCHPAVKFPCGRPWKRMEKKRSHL
T1 sequence (P04070 212-461, chain 2 of 2): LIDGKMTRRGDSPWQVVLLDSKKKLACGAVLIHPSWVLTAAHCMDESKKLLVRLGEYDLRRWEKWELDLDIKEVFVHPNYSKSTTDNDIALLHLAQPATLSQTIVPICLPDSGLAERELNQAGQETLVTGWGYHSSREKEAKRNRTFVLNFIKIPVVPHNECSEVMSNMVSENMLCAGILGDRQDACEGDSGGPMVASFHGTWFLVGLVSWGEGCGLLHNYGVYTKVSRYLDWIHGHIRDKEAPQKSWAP

Kd [1]: 30 nM
Kd (human protein C): 30 nM
B1: endothelial cell protein C/activated protein C receptor (EPCR), human (receptor)
chain: FCSQDASDGLQRLHMLQISYFRDPYHVWYQGNASLGGHLTHVLEGPDTNTTIIQLQPLQEPESWARTQSGLQSYLLQFHGLVRLVHQERTLAFPLTIRCFLGCELPPEGSRAHVFFEVAVNGSSFVSFRPERALWQADTQVTSGVVTFTLQQLNAYNRTRYELREFLEDTCVQYVQKHISAENTKGSQTSRSYTSLVLGVLVGGFIIAGVAVGIFLCTGGRRC
notes: also called EPCR-1 (clone)
